Data: patent US20250019439A1 (Adimab, published 2025)

Key:
ADI-26921 IgG = biological target: T1, ADI-26921 IgG; assay: SPR Carterra avidity, yeast anti-ID
T1 construct: anti-CD3 IgG
Summary of the method: (§1)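 Kinetic constants come from a 1:1 binding-model fit of double-referenced, drift-corrected sensorgrams. Anti-CD3 antibodies (100 nM) were captured via immobilized anti-human Fc, and anti-idiotype binding was recorded at 25° C in HBSTE, with dissociation monitored for 300s.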

ADI-48576 = biological target: T2, ADI-48576; assay: SPR Carterra avidity, yeast anti-ID
T2 construct: pH-dependent anti-CD3 antibody made in CHO cells
Summary of the method: as §1

ADI-76362 = biological target: T3, ADI-76362; assay: SPR Carterra avidity, yeast anti-ID
T3 construct: anti-CD3 antibody made in CHO cells, captured by anti-human Fc
T3 sequence (VH, as listed by the source, chain 1 of 2): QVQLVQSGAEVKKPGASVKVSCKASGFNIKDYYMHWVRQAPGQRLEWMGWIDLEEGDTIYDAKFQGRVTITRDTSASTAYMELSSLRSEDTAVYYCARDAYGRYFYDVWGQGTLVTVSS
T3 sequence (VL, as listed by the source, chain 2 of 2): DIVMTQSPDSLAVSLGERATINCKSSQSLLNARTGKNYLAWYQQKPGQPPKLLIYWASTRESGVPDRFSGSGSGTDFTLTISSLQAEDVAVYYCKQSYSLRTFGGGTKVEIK
Summary of the method: as §1

ADI-26913 IgG = biological target: T4, ADI-26913 IgG; assay: SPR Carterra avidity, yeast anti-ID
T4 construct: anti-CD3 IgG
T4 sequence (VH, as listed by the source limits assumed, chain 1 of 2): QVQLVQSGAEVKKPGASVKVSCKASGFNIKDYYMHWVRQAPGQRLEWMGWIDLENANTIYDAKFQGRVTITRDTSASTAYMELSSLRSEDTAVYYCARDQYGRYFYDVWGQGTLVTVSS
T4 sequence (VL, as listed by the source limits assumed, chain 2 of 2): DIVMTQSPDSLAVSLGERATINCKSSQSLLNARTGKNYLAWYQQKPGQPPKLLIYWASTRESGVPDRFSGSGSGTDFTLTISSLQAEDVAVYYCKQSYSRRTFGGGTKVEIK
Summary of the method: as §1

ADI-67447 = biological target: T5, ADI-67447; assay: SPR Carterra avidity, yeast anti-ID
T5 construct: anti-CD3 antibody made in CHO cells, captured by anti-human Fc
T5 sequence (VH, as listed by the source limits assumed, chain 1 of 2): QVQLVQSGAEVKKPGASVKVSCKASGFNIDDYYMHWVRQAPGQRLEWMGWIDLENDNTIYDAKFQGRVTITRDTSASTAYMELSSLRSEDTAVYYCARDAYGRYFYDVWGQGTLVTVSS
Summary of the method: as §1

ADI-26924 = biological target: T6, ADI-26924; assay: SPR Carterra avidity, yeast anti-ID
T6 construct: anti-CD3 antibody made in CHO cells, captured by anti-human Fc
Summary of the method: as §1

ADI-74967 = biological target: T7, ADI-74967; assay: SPR Carterra avidity, yeast anti-ID
T7 construct: pH-dependent anti-CD3 antibody made in CHO cells
T7 sequence (VH, as listed by the source, chain 1 of 2): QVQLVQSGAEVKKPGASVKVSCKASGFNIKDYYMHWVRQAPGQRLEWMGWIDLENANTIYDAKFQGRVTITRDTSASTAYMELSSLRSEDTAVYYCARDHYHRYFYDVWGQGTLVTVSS
T7 sequence (VL, as listed by the source, chain 2 of 2): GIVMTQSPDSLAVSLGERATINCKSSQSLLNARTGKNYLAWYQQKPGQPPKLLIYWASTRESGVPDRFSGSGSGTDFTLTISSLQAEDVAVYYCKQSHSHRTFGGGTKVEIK
Summary of the method: as §1

ADI-48592 = biological target: T8, ADI-48592; assay: SPR Carterra avidity, yeast anti-ID
T8 construct: pH-dependent anti-CD3 antibody made in CHO cells
T8 sequence (VH, as listed by the source, chain 1 of 2): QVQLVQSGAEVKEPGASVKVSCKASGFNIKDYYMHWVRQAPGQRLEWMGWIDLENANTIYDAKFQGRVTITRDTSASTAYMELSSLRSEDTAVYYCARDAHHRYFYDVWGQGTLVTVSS
T8 sequence (VL, as listed by the source, chain 2 of 2): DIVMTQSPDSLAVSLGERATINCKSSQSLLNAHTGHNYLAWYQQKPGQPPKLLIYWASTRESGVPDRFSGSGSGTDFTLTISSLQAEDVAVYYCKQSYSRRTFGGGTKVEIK
Summary of the method: as §1

ADI-74966 = biological target: T9, ADI-74966; assay: SPR Carterra avidity, yeast anti-ID
T9 construct: pH-dependent anti-CD3 antibody made in CHO cells
T9 sequence (VL, as listed by the source, chain 2 of 2): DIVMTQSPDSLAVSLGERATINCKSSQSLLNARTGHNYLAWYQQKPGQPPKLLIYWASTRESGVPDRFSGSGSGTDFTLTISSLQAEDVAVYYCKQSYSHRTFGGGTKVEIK
Summary of the method: as §1

ADI-26916 IgG = biological target: T10, ADI-26916 IgG; assay: SPR Carterra avidity, yeast anti-ID
T10 construct: anti-CD3 IgG
Summary of the method: as §1

ADI-26919 = biological target: T11, ADI-26919; assay: SPR Carterra avidity, yeast anti-ID
T11 construct: anti-CD3 antibody made in CHO cells, captured by anti-human Fc
T11 sequence (VH, as listed by the source limits assumed, chain 1 of 2): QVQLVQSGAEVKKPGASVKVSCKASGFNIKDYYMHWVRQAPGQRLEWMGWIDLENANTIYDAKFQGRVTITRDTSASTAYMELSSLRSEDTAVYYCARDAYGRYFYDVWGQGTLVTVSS
Summary of the method: as §1

ADI-26912 = biological target: T12, ADI-26912; assay: SPR Carterra avidity, yeast anti-ID
T12 construct: anti-CD3 antibody made in CHO cells, captured by anti-human Fc
Summary of the method: as §1

ADI-26920 IgG = biological target: T13, ADI-26920 IgG; assay: SPR Carterra avidity, yeast anti-ID
T13 construct: anti-CD3 IgG
Summary of the method: as §1

ADI-76360 = biological target: T14, ADI-76360; assay: SPR Carterra avidity, yeast anti-ID
T14 construct: anti-CD3 antibody made in CHO cells, captured by anti-human Fc
Summary of the method: as §1

ADI-74968 = biological target: T15, ADI-74968; assay: SPR Carterra avidity, yeast anti-ID
T15 construct: pH-dependent anti-CD3 antibody made in CHO cells
Summary of the method: as §1

ADI-26943 = biological target: T16, ADI-26943; assay: SPR Carterra avidity, yeast anti-ID
T16 construct: anti-CD3 antibody made in CHO cells, captured by anti-human Fc
Summary of the method: as §1

ADI-76361 = biological target: T17, ADI-76361; assay: SPR Carterra avidity, yeast anti-ID
T17 construct: anti-CD3 antibody made in CHO cells, captured by anti-human Fc
T17 sequence (VH, as listed by the source, chain 1 of 2): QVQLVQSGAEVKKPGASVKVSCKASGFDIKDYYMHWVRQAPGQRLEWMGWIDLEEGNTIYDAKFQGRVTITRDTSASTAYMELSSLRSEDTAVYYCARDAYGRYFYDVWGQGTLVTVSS
Summary of the method: as §1

ADI-74965 = biological target: T18, ADI-74965; assay: SPR Carterra avidity, yeast anti-ID
T18 construct: pH-dependent anti-CD3 antibody made in CHO cells
Summary of the method: as §1

ADI-76358 = biological target: T19, ADI-76358; assay: SPR Carterra avidity, yeast anti-ID
T19 construct: anti-CD3 antibody made in CHO cells, captured by anti-human Fc
Summary of the method: as §1

ADI-67450 = biological target: T20, ADI-67450; assay: SPR Carterra avidity, yeast anti-ID
T20 construct: anti-CD3 antibody made in CHO cells, captured by anti-human Fc
T20 sequence (VH, as listed by the source limits assumed, chain 1 of 2): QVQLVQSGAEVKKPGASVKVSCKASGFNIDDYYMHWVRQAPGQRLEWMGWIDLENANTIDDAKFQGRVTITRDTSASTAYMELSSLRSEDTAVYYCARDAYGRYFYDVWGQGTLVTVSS
Summary of the method: as §1

ADI-76359 = biological target: T21, ADI-76359; assay: SPR Carterra avidity, yeast anti-ID
T21 construct: anti-CD3 antibody made in CHO cells, captured by anti-human Fc
T21 sequence (VH, as listed by the source, chain 1 of 2): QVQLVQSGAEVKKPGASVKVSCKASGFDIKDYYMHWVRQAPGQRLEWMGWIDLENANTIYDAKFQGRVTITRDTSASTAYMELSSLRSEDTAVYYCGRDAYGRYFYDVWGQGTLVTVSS
Summary of the method: as §1

ADI-22523 IgG = biological target: T22, ADI-22523 IgG; assay: BLI; tip anti-ID IgG, solution ADI-22523 IgG
T22 construct: anti-CD3 IgG
Summary of the method: (§2)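 Anti-ID IgG was captured on AHC biosensors, equilibrated in assay buffer for 30 min, then baselined for 60 s. KD = koff/kon came from a 1:1 binding fit.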

ADI-22523 Fab = biological target: T23, ADI-22523 Fab; assay: BLI; tip anti-ID IgG, solution ADI-22523 Fab
T23 construct: anti-CD3 Fab by papain digestion of the IgG
Summary of the method: as §2

ADI-76357 = biological target: T24, ADI-76357; assay: SPR Carterra avidity, yeast anti-ID, *koff limit
T24 construct: anti-CD3 antibody made in CHO cells, captured by anti-human Fc
T24 sequence (VH, as listed by the source, chain 1 of 2): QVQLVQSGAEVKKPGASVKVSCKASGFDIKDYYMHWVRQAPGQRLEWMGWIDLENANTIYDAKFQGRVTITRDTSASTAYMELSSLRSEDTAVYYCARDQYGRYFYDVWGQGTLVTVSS
Summary of the method: as §1

ADI-26906 IgG = biological target: T25, ADI-26906 IgG; assay: SPR Carterra avidity, yeast anti-ID, *koff limit
T25 construct: anti-CD3 IgG
Summary of the method: as §1

ADI-70327 = biological target: T26, ADI-70327; assay: SPR Carterra, yeast anti-ID
T26 construct: anti-CD3 antibody made in CHO cells, captured by anti-human Fc
Summary of the method: as §1

CTL-62223 = biological target: T27, CTL-62223; assay: SPR Carterra, yeast anti-ID
T27 construct: also called mosunetuzumab
T27 sequence (VH, as listed by the source, chain 1 of 2): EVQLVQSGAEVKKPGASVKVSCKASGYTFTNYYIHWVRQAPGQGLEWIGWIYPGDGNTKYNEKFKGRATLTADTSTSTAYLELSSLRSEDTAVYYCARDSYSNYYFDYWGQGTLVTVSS
T27 sequence (VL, as listed by the source, chain 2 of 2): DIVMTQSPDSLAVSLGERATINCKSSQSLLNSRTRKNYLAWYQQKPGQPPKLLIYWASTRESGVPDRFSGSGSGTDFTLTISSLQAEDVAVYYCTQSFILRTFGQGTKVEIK
Summary of the method: as §1

ADI-70330 = biological target: T28, ADI-70330; assay: SPR Carterra, yeast anti-ID
T28 construct: anti-CD3 antibody made in CHO cells, captured by anti-human Fc
Summary of the method: as §1

ADI-48587 = biological target: T29, ADI-48587; assay: SPR Carterra, yeast anti-ID
T29 construct: pH-dependent anti-CD3 antibody made in CHO cells
T29 sequence (VL, as listed by the source, chain 2 of 2): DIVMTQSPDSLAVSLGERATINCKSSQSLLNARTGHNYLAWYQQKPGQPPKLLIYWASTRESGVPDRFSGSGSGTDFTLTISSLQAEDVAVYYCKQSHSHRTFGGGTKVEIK
Summary of the method: as §1

CTL-62228 = biological target: T30, CTL-62228; assay: SPR Carterra, yeast anti-ID
T30 construct: also called glofitamab
Summary of the method: as §1

ADI-48650 = biological target: T31, ADI-48650; assay: SPR Carterra, yeast anti-ID
T31 construct: pH-dependent anti-CD3 antibody made in CHO cells
Summary of the method: as §1

ADI-70326 = biological target: T32, ADI-70326; assay: SPR Carterra, yeast anti-ID
T32 construct: anti-CD3 antibody made in CHO cells, captured by anti-human Fc
T32 sequence (VH, as listed by the source limits assumed, chain 1 of 2): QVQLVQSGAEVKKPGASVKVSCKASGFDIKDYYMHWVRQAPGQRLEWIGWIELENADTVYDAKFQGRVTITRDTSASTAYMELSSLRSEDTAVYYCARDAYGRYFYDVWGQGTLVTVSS
T32 sequence (VL, as listed by the source limits assumed, chain 2 of 2): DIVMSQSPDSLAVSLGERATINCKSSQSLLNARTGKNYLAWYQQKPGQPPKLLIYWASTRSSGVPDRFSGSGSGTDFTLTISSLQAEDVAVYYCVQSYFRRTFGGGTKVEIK
Summary of the method: as §1

CTL-62240 = biological target: T33, CTL-62240; assay: SPR Carterra, yeast anti-ID
T33 construct: also called ONO-4685
T33 sequence (VH, as listed by the source, chain 1 of 2): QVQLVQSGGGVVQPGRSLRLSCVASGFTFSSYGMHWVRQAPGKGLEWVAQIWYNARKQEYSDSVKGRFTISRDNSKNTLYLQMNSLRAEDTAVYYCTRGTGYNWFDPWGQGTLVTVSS
T33 sequence (VL, as listed by the source, chain 2 of 2): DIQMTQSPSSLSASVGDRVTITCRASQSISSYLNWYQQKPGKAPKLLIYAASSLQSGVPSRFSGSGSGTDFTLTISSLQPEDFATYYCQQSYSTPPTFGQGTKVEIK
Summary of the method: as §1

CTL-62227 = biological target: T34, CTL-62227; assay: SPR Carterra, yeast anti-ID
T34 construct: also called odronextamab
T34 sequence (VH, as listed by the source, chain 1 of 2): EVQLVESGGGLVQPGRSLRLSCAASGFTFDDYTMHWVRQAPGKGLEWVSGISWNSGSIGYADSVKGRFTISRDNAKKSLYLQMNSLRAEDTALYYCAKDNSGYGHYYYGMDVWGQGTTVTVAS
T34 sequence (VL, as listed by the source, chain 2 of 2): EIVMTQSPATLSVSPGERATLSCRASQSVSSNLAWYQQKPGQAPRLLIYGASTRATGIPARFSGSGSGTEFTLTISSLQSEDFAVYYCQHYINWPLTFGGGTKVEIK
Summary of the method: as §1

ADI-67445 = biological target: T35, ADI-67445; assay: SPR Carterra, yeast anti-ID
T35 construct: anti-CD3 antibody made in CHO cells, captured by anti-human Fc
T35 sequence (VH, as listed by the source limits assumed, chain 1 of 2): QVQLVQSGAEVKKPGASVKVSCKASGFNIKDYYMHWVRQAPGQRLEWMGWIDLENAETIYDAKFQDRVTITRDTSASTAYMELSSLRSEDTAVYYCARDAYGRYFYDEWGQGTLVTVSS
Summary of the method: as §1

ADI-26915 = biological target: T36, ADI-26915; assay: SPR Carterra, yeast anti-ID
T36 construct: anti-CD3 antibody made in CHO cells, captured by anti-human Fc
Summary of the method: as §1

ADI-26909 = biological target: T37, ADI-26909; assay: SPR Carterra, yeast anti-ID
T37 construct: anti-CD3 antibody made in CHO cells, captured by anti-human Fc
Summary of the method: as §1

ADI-50024 = biological target: T38, ADI-50024; assay: SPR Carterra, yeast anti-ID
T38 construct: anti-CD3 antibody made in CHO cells, captured by anti-human Fc
Summary of the method: as §1

B1: ADI-34143 (antibody, V domains shown)
VH: EVQLLESGGGLVQPGGSLRLSCAASGFTFSSYAMSWVRQAPGKGLEWVSTISGSGGSTYYADSVKGRFTISRDNSKNTLYLQMNSLRAEDTAVYYCARLGGRRGSGSSYYYYYGMDVWGQGTTVTVSS
VL: not shown
notes: anti-ID IgG
- binding result (ADI-26921 IgG): binds
- binding result (ADI-48576): binds
- binding result (ADI-76362): binds
- Kd (ADI-26913 IgG): 23 nM
- Kd (ADI-67447): 33 nM
- Kd (ADI-26924): 20 nM
- binding result (ADI-74967): binds
- binding result (ADI-48592): binds
- Kd (ADI-74966): 36 nM
- Kd (ADI-26916 IgG): 43 nM
- Kd (ADI-26919): 24 nM
- binding result (ADI-26912): binds
- Kd (ADI-26920 IgG): 35 nM
- binding result (ADI-76360): binds
- Kd (ADI-74968): 130 nM
- Kd (ADI-26943): 11 nM
- binding result (ADI-76361): binds
- binding result (ADI-74965): binds
- binding result (ADI-76358): binds
- binding result (ADI-67450): binds
- Kd (ADI-76359): 20 nM
- Kd (ADI-22523 IgG): 2.98 nM
- Kd (ADI-22523 Fab): 18.2 nM
- Kd (ADI-76357): 6.6 nM
- Kd (ADI-26906 IgG): 13 nM
- binding result (ADI-70327): no binding (tested: up to 200 nM)
- binding result (CTL-62223): no binding (tested: up to 200 nM)
- binding result (ADI-70330): no binding (tested: up to 200 nM)
- binding result (ADI-48587): no binding (tested: up to 200 nM)
- binding result (CTL-62228): no binding (tested: up to 200 nM)
- binding result (ADI-48650): no binding (tested: up to 200 nM)
- binding result (ADI-70326): no binding (tested: up to 200 nM)
- binding result (CTL-62240): no binding (tested: up to 200 nM)
- binding result (CTL-62227): no binding (tested: up to 200 nM)
- binding result (ADI-67445): no binding (tested: up to 200 nM)
- binding result (ADI-26915): no binding (tested: up to 200 nM)
- binding result (ADI-26909): no binding (tested: up to 200 nM)
- binding result (ADI-50024): no binding (tested: up to 200 nM)
